# System: Escherichia coli TOP10
# Assay: shrunken log2 fold change of peptide-encoding DNA abundance (4.5 h post-induction vs induction); higher = less antimicrobial activity (less host growth inhibition)
# Settings: time post-induction: 4.5 h; library: site-saturation at positions 5, 18, 19, 20
# 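Also: peptides expressed intracellularly from a pBAD plasmid library in pooled LB shake-flask culture, induced with 0.3% L-arabinose, DNA abundance read by NGS, three biological replicates, DESeq2 with apeglm shrinkage.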
row,Sequence,shrunken log2 fold change
1,RRIRYRPPRLPRPRPRPVFPPRP,-0.0627
2,RRIRYRPPRLPRPRPRPVHGPRP,-0.014
3,RRIRYRPPRLPRPRPRPVILPRP,-0.0444
4,RRIRYRPPRLPRPRPRPVKYPRP,-0.135
5,RRIRYRPPRLPRPRPRPVLIPRP,-0.00211
6,RRIRYRPPRLPRPRPRPVLMPRP,-0.83
7,RRIRYRPPRLPRPRPRPVMAPRP,-0.335
8,RRIRYRPPRLPRPRPRPVNLPRP,-0.0688
9,RRIRYRPPRLPRPRPRPVPAPRP,-0.156
10,RRIRYRPPRLPRPRPRPVPDPRP,-0.0838
11,RRIRYRPPRLPRPRPRPVPQPRP,-0.0271
12,RRIRYRPPRLPRPRPRPVQSPRP,-0.017
13,RRIRYRPPRLPRPRPRPVRDPRP,-0.123
14,RRIRYRPPRLPRPRPRPVSQPRP,-0.303
15,RRIRYRPPRLPRPRPRPVYWPRP,-0.763
16,RRIRYRPPRLPRPRPRPWARPRP,-0.116
17,RRIRYRPPRLPRPRPRPWCVPRP,-0.55
18,RRIRYRPPRLPRPRPRPWDFPRP,-0.0206
19,RRIRYRPPRLPRPRPRPWFAPRP,-0.497
20,RRIRYRPPRLPRPRPRPWHKPRP,-0.377
21,RRIRYRPPRLPRPRPRPWIYPRP,-0.138

row,Sequence,shrunken log2 fold change
1,RRIRYRPPRLPRPRPRPWKKPRP,0.00843
2,RRIRYRPPRLPRPRPRPWLFPRP,0.0905
3,RRIRYRPPRLPRPRPRPWMYPRP,-0.00277
4,RRIRYRPPRLPRPRPRPWPRPRP,0.209
5,RRIRYRPPRLPRPRPRPWRGPRP,0.318
6,RRIRYRPPRLPRPRPRPWRMPRP,-0.369
7,RRIRYRPPRLPRPRPRPWRWPRP,-0.036
8,RRIRYRPPRLPRPRPRPWSKPRP,-0.0945
9,RRIRYRPPRLPRPRPRPWVIPRP,-0.0317
10,RRIRYRPPRLPRPRPRPWVSPRP,-0.013
11,RRIRYRPPRLPRPRPRPWWVPRP,-0.0131
12,RRIRYRPPRLPRPRPRPWWWPRP,0.0798
13,RRIRYRPPRLPRPRPRPWYGPRP,-0.258
14,RRIRYRPPRLPRPRPRPYCEPRP,-0.0996
15,RRIRYRPPRLPRPRPRPYCWPRP,-1.07
16,RRIRYRPPRLPRPRPRPYCYPRP,-1.12
17,RRIRYRPPRLPRPRPRPYDAPRP,-0.129
18,RRIRYRPPRLPRPRPRPYEHPRP,-0.0505
19,RRIRYRPPRLPRPRPRPYFFPRP,-0.792
20,RRIRYRPPRLPRPRPRPYGWPRP,-0.187
21,RRIRYRPPRLPRPRPRPYHCPRP,-0.00776

row,Sequence,shrunken log2 fold change
1,RRIRYRPPRLPRPRPRPYHIPRP,-0.23
2,RRIRYRPPRLPRPRPRPYICPRP,-0.234
3,RRIRYRPPRLPRPRPRPYLFPRP,-0.687
4,RRIRYRPPRLPRPRPRPYLRPRP,-0.00962
5,RRIRYRPPRLPRPRPRPYLVPRP,-0.536
6,RRIRYRPPRLPRPRPRPYMWPRP,-0.43
7,RRIRYRPPRLPRPRPRPYNTPRP,-1.88
8,RRIRYRPPRLPRPRPRPYNYPRP,-1.3
9,RRIRYRPPRLPRPRPRPYPQPRP,-0.466
10,RRIRYRPPRLPRPRPRPYQRPRP,-0.00973
11,RRIRYRPPRLPRPRPRPYRDPRP,-0.0114
12,RRIRYRPPRLPRPRPRPYRIPRP,-0.731
13,RRIRYRPPRLPRPRPRPYRKPRP,-0.178
14,RRIRYRPPRLPRPRPRPYTGPRP,-0.0103
15,RRIRYRPPRLPRPRPRPYTLPRP,-0.213
16,RRIRYRPPRLPRPRPRPYTPPRP,-1.28
17,RRIRYRPPRLPRPRPRPYVAPRP,-0.206
18,RRIRYRPPRLPRPRPRPYVMPRP,-1.04
19,RRIRYRPPRLPRPRPRPYWIPRP,-0.222
20,RRIRYRPPRLPRPRPRPYYWPRP,-0.111
